Laboratory results published in patent US20220363763A1 (ABL BIO, published 2022).
Residue numbers refer to the chain shown, from its start.

T1: human LAG3 (construct not stated) (human, UniProt P18627 23-450, limits assumed)
T1 construct: also called human LAG3 protein; antigen
T1 sequence (looked up): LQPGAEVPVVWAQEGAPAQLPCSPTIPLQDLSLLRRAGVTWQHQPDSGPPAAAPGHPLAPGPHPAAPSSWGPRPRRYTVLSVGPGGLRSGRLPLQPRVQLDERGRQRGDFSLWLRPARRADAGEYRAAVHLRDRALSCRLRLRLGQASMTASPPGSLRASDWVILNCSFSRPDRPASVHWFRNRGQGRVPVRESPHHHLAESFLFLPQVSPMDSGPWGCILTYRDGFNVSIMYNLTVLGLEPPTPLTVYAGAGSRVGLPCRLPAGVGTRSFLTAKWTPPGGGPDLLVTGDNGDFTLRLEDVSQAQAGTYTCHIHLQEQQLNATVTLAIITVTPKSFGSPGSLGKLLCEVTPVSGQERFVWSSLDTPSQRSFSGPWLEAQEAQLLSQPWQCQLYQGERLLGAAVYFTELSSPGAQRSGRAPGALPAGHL

B1: B1 (antibody, V domains shown)
VH: EVQLVESGGGLVQPGGSLRLSCAASGFTFSSYDMSWVRQAPGKSLEWVATISDAGGYIYYRDSVKGRFTISRDNAKNSLYLQMNSLRDEDTAVYICAREIFNRYALDYWGQGTTVTVSS
VL: DIQMTQSPSSLSASVGDRVTITCKASQDVTPAVAWYQQKPGKAPKLLIYSTSSRYTGVPSRFSGSGSGTDFTFTISSLQPEDIATYYCQQHYTTPLTFGQGTKLEIK
B2: C4 (antibody, V domains shown)
VH: B1 VH with I100F, F101G, N102K, Y108S
VL: B1 VL with T30W, Y92S
B3: B3 (antibody, V domains shown)
VH: B1 VH with I100F, F101G, N102K
VL: B1 VL with S26K, Q89M
B4: C3 (antibody, V domains shown)
VH: B1 VH with I100L, F101H, N102F
VL: B1 VL
B5: C6 (antibody, V domains shown)
VH: B1 VH with I100L, F101Y, N102F
VL: B1 VL
B6: Hu1210-1 (antibody, V domains shown)
VH: B1 VH with Q13K, S44G, A49S, A54G, R61S, D88A, I95Y, I100F, F101G, N102K
VL: B1 VL
notes: Hu1210 VH.1 x Vk.1
B7: Hu1210-17 (antibody, V domains shown)
VH: B1 VH with A54G, R61S, I100F, F101G, N102K
VL: B1 VL
notes: Hu1210 VH.4b x Vk.1; human gamma 1 / kappa constant domains
B8: Hu1210-18 (antibody, V domains shown)
VH: EVQLLESGGGLVQPGGSLRLSCAASGFTFSSYDMSWVRQAPGKGLEWVSTISDGGGYIYYSDSVKGRFTISRDNSKNTLYLQMNSLRAEDTAVYYCAREFGKRYALDYWGQGTTVTVSS
VL: B1 VL with A43S
notes: Hu1210 VH.3 x Vk.1a; human gamma 1 / kappa constant domains
B9: Hu1210-20 (antibody, V domains shown)
VH: B8 VH with L5V, S75A, T78S, A88D
VL: B1 VL with A43S
notes: Hu1210 VH.4 x Vk.1a; human gamma 1 / kappa constant domains
B10: Hu1210-21 (antibody, V domains shown)
VH: B8 VH with L5V, S49A, S75A, T78S, A88D
VL: B1 VL with A43S
notes: Hu1210 VH.4a x Vk.1a; human gamma 1 / kappa constant domains
B11: Hu1210-19 (antibody, V domains shown)
VH: B8 VH with G44S, S49A, Y95I
VL: B1 VL with A43S
notes: Hu1210 VH.3a x Vk.1a; human gamma 1 / kappa constant domains
B12: 147H-6 (antibody, V domains shown)
VH: QVQLVQSGAEVKKPGASVKVSCKASGYTFTNYWLGWIKQAPGQGLEWIGDIYPGGDYINYNEKFKGKATLTADTSISTAYMELSRLRSDDTAVYYCARPNLPGDYWGQGTTVTVSS
VL: DIVMTQSPLSLPVTPGEPASISCRSSKSLLHSNGITYLYWYLQKPGQSPQLLIYQVSNLASGVPDRFSGSGSGTDFTLKISRVEAEDVGVYYCAQNLELPWTFGGGTKVEIK
notes: Common light chain; human gamma 1 / kappa constant domains
B13: 147H chimeric antibody (antibody, V domains shown)
VH: QVQLQQSGSELVRPGTSVKISCKASGYTFTNYWLGWIKQRPGHGLEWIGDIYPGGDYINYNEKFKGKATLSADTSSSTAYMQLSSLTSEDSAVYFCARPNLPGDYWGQGTSVTVSS
VL: B12 VL with S7A, P8A, L9F, L11N, P15L, E17T, P18S, D65G, K79R, V109L
B14: 147H-14 (antibody, V domains shown)
VH: B12 VH with Q1E, Y95F
VL: B12 VL
notes: as for B12
B15: 147H-7 (antibody, V domains shown)
VH: B12 VH with Y95F
VL: B12 VL
notes: as for B12
B16: Hu1210-27 (antibody, V domains shown)
VH: B8 VH with L5V, S49A, S75A, T78S, Y95I, T114L
VL: DIQMTQSPSSLSASVGDRVTITCKASQDVTPAVAWYQQKPGKAPKLLIYSTSSRYTGVPSRFSGSGSGTDFTLTISSLQPEDFATYYCQQHYTTPLTFGQGTKLEIKR
notes: Hu1210 VH.5a x Vk.2; human gamma 1 / kappa constant domains
B17: Hu1210-31 (antibody, V domains shown)
VH: B8 VH with L5V, S49A, S75A, T78S, Y95I
VL: B16 VL
notes: Hu1210 VH.5b x Vk.2; human gamma 1 / kappa constant domains
B18: Hu1210-36 (antibody, V domains shown)
VH: B8 VH with L5V, A40T, G42E, G44S, S49A, S75A, T78N, Y95I, T114L
VL: B16 VL
notes: Hu1210 VH.5d (printed 'VH.Sd') x Vk.2; human gamma 1 / kappa constant domains

Biological target: T2, human PD-L1 (construct not stated) (human, UniProt Q9NZQ7 19-239, limits assumed)
T2 construct: also called B7-H1 (PD-L1); PD-L1 protein
Test: SPR Biacore, affinity ranking

T2 sequence (Q9NZQ7 19-239 limits assumed): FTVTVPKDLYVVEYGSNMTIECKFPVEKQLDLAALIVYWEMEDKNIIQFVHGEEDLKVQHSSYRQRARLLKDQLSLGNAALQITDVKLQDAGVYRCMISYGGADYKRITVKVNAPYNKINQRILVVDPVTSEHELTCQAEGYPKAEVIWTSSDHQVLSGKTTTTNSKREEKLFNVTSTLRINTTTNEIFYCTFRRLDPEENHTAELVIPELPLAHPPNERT

Row | Binder | Kd [nM] | koff [s⁻¹] | kon [M⁻¹ s⁻¹]
1 | B1 | 1.6 | 0.000261 | 163000
2 | B2 | 4.5 | 0.000506 | 113000
3 | B3 | 2.49 | 0.000296 | 119000
4 | B4 | 1.37 | 0.000299 | 218000
5 | B5 | 1.63 | 0.000334 | 206000

Biological target: T3, human PD-L1 expressed on mammalian cells (human, UniProt Q9NZQ7 19-290)
T3 construct: whole, on cells; also called PDL1-CHOK1 cells; PDL1-Raji cells
Test: flow cytometry (MFI) on PDL1-CHOK1 cells; EC50 table has no unit, x axis Antibodies(nM)
Description: (§1) To evaluate the antigen binding property, the humanized antibodies were analyzed for its binding to mammalian expressed PD-L1 by FACS. Briefly, PDL1-CHOK1 cells were firstly incubated with 5-fold serious diluted humanized antibodies starting at 2 μg/ml at RT for 1 hour. After wash by FACS buffer (PBS with 2% FBS), the alexa 488-anti-human IgG antibody was added to each well and incubated at RT for 1 hour. The MFI of Alexa 488 was evaluated by FACSAriaIII.

T3 sequence (Q9NZQ7 19-290): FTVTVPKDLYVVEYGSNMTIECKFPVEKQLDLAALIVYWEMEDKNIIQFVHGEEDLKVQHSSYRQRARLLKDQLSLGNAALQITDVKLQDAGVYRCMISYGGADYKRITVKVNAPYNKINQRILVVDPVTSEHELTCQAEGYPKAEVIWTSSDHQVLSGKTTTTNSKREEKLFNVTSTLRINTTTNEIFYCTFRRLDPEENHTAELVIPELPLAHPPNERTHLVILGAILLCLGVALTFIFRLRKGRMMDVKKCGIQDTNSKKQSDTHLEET

Row | Binder | EC50 [nM]
6 | B6 | 2.31

Biological target: T3, human PD-L1 expressed on mammalian cells
Test: as above
Remark: another data set of the same source
Description: as §1

Row | Binder | EC50 [nM]
7 | B7 | 1.23
8 | B8 | 1.8
9 | B9 | 1.73
10 | B10 | 1.29
11 | B11 | 1.01

Biological target: T2, human PD-L1 (construct not stated)
Test: BLI Octet Red 96, affinity ranking
From the text: To explore the binding kinetics of the humanized antibody, this example performed the affinity ranking by using Octet Red 96.

Row | Binder | Kd [nM] | koff [s⁻¹] | kon [M⁻¹ s⁻¹]
12 | B7 | 2.2 | 0.00018 | 81700
13 | B8 | 4.5 | 0.000357 | 79200
14 | B9 | 4.51 | 0.0004 | 88700
15 | B6 | 4.25 | 0.000302 | 71000
16 | B10 | 3.12 | 0.000293 | 93900
17 | B11 | 2.5 | 0.000225 | 90300

Biological target: T1, human LAG3 (construct not stated)
Test: BLI Octet Red 96, full kinetics, antigen 50-3.125 nM
Description: The binding affinity was calculated by software in Octet® RED96 System.

Row | Binder | Kd [nM] | koff [s⁻¹] | kon [M⁻¹ s⁻¹]
18 | B12 | 24.8 | 0.00259 | 105000
19 | B13 | 27.1 | 0.00217 | 80100
20 | B14 | 20.7 | 0.00204 | 98700
21 | B15 | 26.5 | 0.00312 | 118000

Biological target: T1, human LAG3 (construct not stated)
Test: BLI Octet Red 96, affinity ranking

Row | Binder | Kd [nM] | koff [s⁻¹] | kon [M⁻¹ s⁻¹]
22 | B12 | 15.3 | 0.00184 | 120000
23 | B14 | 23.2 | 0.0025 | 108000
24 | B15 | 15.7 | 0.00239 | 152000

Biological target: T4, human PD-L1-Fc protein (human, UniProt Q9NZQ7 19-239)
T4 construct: Coated on ELISA plates; also called huPD-L1; not shown: Fc part
Test: ELISA on coated human PD-L1-Fc; EC50 table has no unit, x axis Ab(nM)
Description: (§2) To evaluate the antigen binding activity, the humanized antibodies were subjected to ELISA test. Briefly, microtiter plates were coated with human PD-L1-Fc protein at 0.1 μg/ml in PBS, 100 μl/well at 4° C. overnight, then blocked with 100 μl/well of 5% BSA. Five-fold dilutions of humanized antibodies starting from 10 μg/ml were added to each well and incubated for 1-2 hours at RT. The plates were washed with PBS/Tween and then incubate with […] antibody conjugated with Horse Radish Peroxidase (HRP) for 1 hour at RT. After washing, the plates were developed with TMB substrate and analyzed by spectrophotometer at OD 450-630 nm.

T4 sequence (Q9NZQ7 19-239 limits assumed): as the sequence (Q9NZQ7 19-239 limits assumed) above

Row | Binder | EC50 [nM]
25 | B6 | 0.167

Biological target: T4, human PD-L1-Fc protein
Test: as above
Remark: another data set of the same source
Description: as §2

Row | Binder | EC50 [nM]
26 | B7 | 0.208
27 | B8 | 0.195
28 | B9 | 0.185
29 | B10 | 0.192
30 | B11 | 0.137

Biological target: T3, human PD-L1 expressed on mammalian cells
Test: FACS receptor blocking on PDL1-CHOK1 cells, competitor Bio-PD1 (30 µg/ml)
Description: To evaluate the blocking effect of humanized antibodies on human PD-L1 expressed on mammalian cells to bind to its receptor PD-1, the FACS-based receptor blocking assay was employed. Briefly, PDL1-CHOK1 cells were firstly incubated with 3-fold serious diluted HL1210-3 mouse mAb starting at 20 μg/ml at RT for 1 hour. After wash by FACS buffer (PBS with 2% FBS), the biotin-labeled huPD-1 were added to each well and incubated at RT for 1 hour. Then, the Streptavidin-PE was added to each well for 0.5 hour post twice wash with FACS buffer. The mean florescence intensity (MFI) of PE was evaluated by FACSAriaIII.

Row | Binder | TOP
31 | B16 | 104
32 | B7 | 80.9
33 | B17 | 92.9
34 | B18 | 91.8
35 | B11 | 87.5

Biological target: T5, human PD-L1-his taq protein (human, UniProt Q9NZQ7 19-239, limits assumed)
T5 construct: also called recombinant PD-L1 protein; recombinant human PD-L1; not shown: his tag
Test: SPR Biacore T200, antibody captured, PD-L1-his injected
Description: The binding of the humanized antibodies to recombinant PD-L1 protein (human PD-L1-his taq) was tested by BIACORE™ using a capture method. The HL1210-3 mouse mAb were captured using anti-mouse Fc antibody coated on a CM5 chip. A series dilution of human PD-L1-his taq protein was injected over captured antibody for 3 mins at a flow rate of […]. The antigen was allowed to dissociate for 900 s. All the experiments were carried out on a Biacore T200.

T5 sequence (Q9NZQ7 19-239 limits assumed): as above

Row | Binder | Kd [nM] | koff [s⁻¹] | kon [M⁻¹ s⁻¹]
36 | B7 | 0.193 | 2.13e-05 | 110000
37 | B17 | 0.786 | 0.000117 | 149000
38 | B18 | 0.538 | 7.85e-05 | 146000
